Results published in patent publication US20220195497A1 (ROCHE DIAGNOSTICS OPERATIONS, published 2022).

T1: hTK (UniProt P04183 1-234)
T1 sequence (looked up): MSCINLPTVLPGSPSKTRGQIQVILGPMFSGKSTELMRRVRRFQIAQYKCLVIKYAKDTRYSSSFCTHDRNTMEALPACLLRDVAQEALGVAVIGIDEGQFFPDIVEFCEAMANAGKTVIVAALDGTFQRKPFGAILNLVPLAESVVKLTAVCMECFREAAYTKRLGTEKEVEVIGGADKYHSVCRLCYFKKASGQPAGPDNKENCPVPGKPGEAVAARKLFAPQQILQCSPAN


What was measured:
[1] = molecular target: T1, hTK; assay: SPR sandwich matrix on hTK; row = primary antibody; secondary antibody (competitor): 4H4-IgG
[2] = molecular target: T1, hTK; assay: SPR sandwich matrix on hTK; row = primary antibody; secondary antibody (competitor): 6C6-IgG
[3] = molecular target: T1, hTK; assay: SPR sandwich matrix on hTK; row = primary antibody; secondary antibody (competitor): 23C11-IgG
[4] = molecular target: T1, hTK; assay: SPR sandwich matrix on hTK; row = primary antibody; secondary antibody (competitor): Antibody A

| Binder | Molar Ratio Epitope Accessibility (MREA) [1] | Molar Ratio Epitope Accessibility (MREA) [2] | Molar Ratio Epitope Accessibility (MREA) [3] | Molar Ratio Epitope Accessibility (MREA) [4] |
| --- | --- | --- | --- | --- |
| 23C11-IgG (antibody, V domains shown) VH: CQSLEESGGRLVTPGTPLTLTCTASGFSLSNYYMSWVRQAPGKGLEWIGIIYGDDNTYCANWTKGRFTISKTSTTVDLTITSPTTEDTATYFCARGPDYIAAKMDIWGPGTLVTVSL VL: DVVMTQTPASVEAAVGGTVTIKCQASQSISGYLSWYQQKPGQRPKLLIYRASTLESGVPSRFKGSGSGTEFTLTISDLECADAATYYCQCTYGSSTFSSYGNAFGGGTEVVVK | 0 | 0 | 0 | 0.2 |
| 4H4-IgG (antibody, V domains shown) VH: CQSLEESGGGLVQPEGSLTLTCTASGFSFSSGYDMCWVRQTPGKGLEWIACISVDSDGVTYYASWAKGRFTISKTSSTTVTLQMTSLTAADTATYFCARGYESSSGVYIPYFTLWGPGTLVTVSS VL: DIVLTQTPASVEAAVGGTVTIKCQASQSIYSYLAWYQHKPGQPPKLLIYKASTLASGVPSRFKGSGSGTEYTLTISDLECADAATYYCQHYYYSSTSGGGVFGGGTEVVVK | 0 | 0 | 0 | 0.2 |
| 6C6-IgG (antibody, V domains shown) VH: QEQLEESGGDLVKPEGSLTLTCTASRFSFSSSYWICWVRQAPGKGLEWIACIYAGDSGSSYYASWAKGRFTVSKTSSTTVTLQTTSLTAADTATYFCARASVGAAYDYFALWGPGTLVTVSS VL: ALVMTQTPASVEAAMGGTVTIKCQASEDVSSHLAWYQQRPGQPPKLLIYGASDLASGVPSRFTGSGSGTQFTLAISDLECADAATYYCQGYYYISDSPYVFGGGTEVVVK | 0 | 0 | 0 | 0.4 |
